Data published in the RNAGym collection of RNA variant scans (doi:10.1101/gr.219683.116).

B1: mRNA-splicing (parent)
chain: AGUUGCUGCUGGGAGCUCCAGCACAGUGAAAUGGACAGAAGGGCAGAGCAA

Variants of: B1
Test: exon inclusion enrichment index; higher = more inclusion; WT1 exon 5 minigene, HEK293

Variant	exon inclusion enrichment index
G5A C6U U7A G8U C9A C22G	0.0616
G5A C6U U7A G8U C9A C22U	0.0424
G5A C6U U7A G8U C9A C22A	0.0781
G5A C6U U7A G8U C9A A29U A30G	0.0618
G5A C6U U7A G8U C9A A29U A30C	0.0463
G5A C6U U7A G8U C9A A29U A30U	0.00971
G5A C6U U7A G8U C9A A40U G41A	0.00198
G5A C6U U7A G8U C9A A40U G41U	0.0246
G5A C6U U7A G8U C9A A40U G41C	0.359
G5A C6U U7A G8U C9A C19U A20G	0.00852
G5A C6U U7A G8U C9A C19U A20C	0.078
G5A C6U U7A G8U C9A C19U A20U	0.00982
G5A C6U U7A G8U C9A A23C C24G	0.241
G5A C6U U7A G8U C9A A23C C24U	0.00662
G5A C6U U7A G8U C9A A23G C24G	0.259
G5A C6U U7A G8U C9A A23G C24U	0.0127
G5A C6U U7A G8U C9A A23G C24A	0.238
G5A C6U U7A G8U C9A A30G	0.0451
G5A C6U U7A G8U C9A A30U	0.0249
G5A C6U U7A G8U C9A A30C	0.0649
G5A C6U U7A G8U C9A G11U G12C	0.033
G5A C6U U7A G8U C9A G11U G12A	0.00404
G5A C6U U7A G8U C9A G11U G12U	0.00843
G5A C6U U7A G8U C9A A31U	0.0565

Variant	exon inclusion enrichment index
G5A C6U U7A G8U C9A A31C	0.077
G5A C6U U7A G8U C9A A31G	0.12
G5A C6U U7A G8U C9A G21C C22U	0.0665
G5A C6U U7A G8U C9A G21C C22A	0.109
G5A C6U U7A G8U C9A G21C C22G	0.197
G5A C6U U7A G8U C9A G28U	0.0124
G5A C6U U7A G8U C9A G28A	0.0134
G5A C6U U7A G8U C9A G28C	0.0466
G5A C6U U7A G8U C9A A30G A31C	0.00117
G5A C6U U7A G8U C9A A30G A31G	0.00768
G5A C6U U7A G8U C9A A30G A31U	0.0123
G5A C6U U7A G8U C9A C24G A25C	0.392
G5A C6U U7A G8U C9A C24G A25G	0.0168
G5A C6U U7A G8U C9A C24G A25U	0.0695
G5A C6U U7A G8U C9A C18A C19G	0.00128
G5A C6U U7A G8U C9A C18A C19U	0.00112
G5A C6U U7A G8U C9A C18A C19A	0.00553
G5A C6U U7A G8U C9A G34A	0.0272
G5A C6U U7A G8U C9A G34C	0.0129
G5A C6U U7A G8U C9A G34U	0.00388
G5A C6U U7A G8U C9A C36G A37G	0.00777
G5A C6U U7A G8U C9A C36G A37U	0.0196
G5A C6U U7A G8U C9A C36G A37C	0.0098
G5A C6U U7A G8U C9A A31C U32C	0.363

Variant	exon inclusion enrichment index
G5A C6U U7A G8U C9A A31C U32A	0.0278
G5A C6U U7A G8U C9A A31C U32G	0.0628
G5A C6U U7A G8U C9A G34U A35C	0.0139
G5A C6U U7A G8U C9A G34U A35U	0.007
G5A C6U U7A G8U C9A G34U A35G	0.014
G5A C6U U7A G8U C9A A29C A30C	0.142
G5A C6U U7A G8U C9A A29C A30G	0.219
G5A C6U U7A G8U C9A A29C A30U	0.0308
G5A C6U U7A G8U C9A A47U G48A	0.0443
G5A C6U U7A G8U C9A A47U G48C	0.0371
G5A C6U U7A G8U C9A A47U G48U	0.0462
G5A C6U U7A G8U C9A A25C G26C	0.0828
G5A C6U U7A G8U C9A A25C G26A	0.223
G5A C6U U7A G8U C9A A25C G26U	0.133
G5A C6U U7A G8U C9A C18U C19A	0.00119
G5A C6U U7A G8U C9A C18U C19U	0.00085
G5A C6U U7A G8U C9A C18U C19G	0.0036
G5A C6U U7A G8U C9A G26C U27C	0.489
G5A C6U U7A G8U C9A G26C U27A	0.0751
G5A C6U U7A G8U C9A G26C U27G	0.442
G5A C6U U7A G8U C9A G38U A39G	0.03
G5A C6U U7A G8U C9A G38U A39U	0.00248
G5A C6U U7A G8U C9A G38U A39C	0.045
G5A C6U U7A G8U C9A G28C A29G	0.178

Variant	exon inclusion enrichment index
G5A C6U U7A G8U C9A G28C A29C	0.0748
G5A C6U U7A G8U C9A G28C A29U	0.0282
G5A C6U U7A G8U C9A C16U U17G	0.0217
G5A C6U U7A G8U C9A C16U U17C	0.0363
G5A C6U U7A G8U C9A C16U U17A	0.0252
G5A C6U U7A G8U C9A G21A C22U	0.021
G5A C6U U7A G8U C9A G21A C22G	0.0719
G5A C6U U7A G8U C9A G21A C22A	0.0256
G5A C6U U7A G8U C9A C44U A45U	0.0242
G5A C6U U7A G8U C9A C44U A45G	0.0383
G5A C6U U7A G8U C9A C44U A45C	0.1
G5A C6U U7A G8U C9A A40G G41C	0.455
G5A C6U U7A G8U C9A A40G G41U	0.0544
G5A C6U U7A G8U C9A A40G G41A	0.0181
G5A C6U U7A G8U C9A C44U	0.00684
G5A C6U U7A G8U C9A C44A	0.286
G5A C6U U7A G8U C9A C44G	0.115
G5A C6U U7A G8U C9A A39G A40U	0.00682
G5A C6U U7A G8U C9A A39G A40C	0.102
G5A C6U U7A G8U C9A A39G A40G	0.00821
G5A C6U U7A G8U C9A G15U C16A	0.0179
G5A C6U U7A G8U C9A G15U C16U	0.00626
G5A C6U U7A G8U C9A G15U C16G	0.0108
G5A C6U U7A G8U C9A G15A	0.0278

Variant	exon inclusion enrichment index
G5A C6U U7A G8U C9A G15U	0.0601
G5A C6U U7A G8U C9A G15C	0.156
G5A C6U U7A G8U C9A C24A A25G	0.0412
G5A C6U U7A G8U C9A C24A A25C	0.405
G5A C6U U7A G8U C9A C24A A25U	0.0699
G5A C6U U7A G8U C9A G13U A14C	0.0467
G5A C6U U7A G8U C9A G13U A14U	0.0119
G5A C6U U7A G8U C9A G13U A14G	0.00922
G5A C6U U7A G8U C9A C19U	0.00395
G5A C6U U7A G8U C9A C19A	0.0415
G5A C6U U7A G8U C9A C19G	0.0674
G5A C6U U7A G8U C9A C36A A37C	0.0847
G5A C6U U7A G8U C9A C36A A37U	0.0158
G5A C6U U7A G8U C9A C36A A37G	0.0248
G5A C6U U7A G8U C9A G38A	0.0251
G5A C6U U7A G8U C9A G38C	0.0329
G5A C6U U7A G8U C9A G38U	0.0207
G5A C6U U7A G8U C9A A23U C24U	0.000794
G5A C6U U7A G8U C9A A23U C24A	0.0228
G5A C6U U7A G8U C9A A23U C24G	0.128
G5A C6U U7A G8U C9A A37U	0.0684
G5A C6U U7A G8U C9A A37C	0.285
G5A C6U U7A G8U C9A A37G	0.17
G5A C6U U7A G8U C9A A47C G48A	0.0387

Variant	exon inclusion enrichment index
G5A C6U U7A G8U C9A A47C G48U	0.0767
G5A C6U U7A G8U C9A A47C G48C	0.0967
G5A C6U U7A G8U C9A G38A A39U	0.00385
G5A C6U U7A G8U C9A G38A A39G	0.0704
G5A C6U U7A G8U C9A G38A A39C	0.0573
G5A C6U U7A G8U C9A C18U	0.0307
G5A C6U U7A G8U C9A C18G	0.0618
G5A C6U U7A G8U C9A C18A	0.017
G5A C6U U7A G8U C9A A39C A40G	0.0817
G5A C6U U7A G8U C9A A39C A40C	0.204
G5A C6U U7A G8U C9A A39C A40U	0.0208
G5A C6U U7A G8U C9A C22G A23G	0.0166
G5A C6U U7A G8U C9A C22G A23C	0.0334
G5A C6U U7A G8U C9A C22G A23U	0.00095
G5A C6U U7A G8U C9A A25U G26A	0.0732
G5A C6U U7A G8U C9A A25U G26U	0.0803
G5A C6U U7A G8U C9A A25U G26C	0.157
G5A C6U U7A G8U C9A G33U	0.00963
G5A C6U U7A G8U C9A G33A	0.00613
G5A C6U U7A G8U C9A G33C	0.108
G5A C6U U7A G8U C9A C18G C19U	0.00519
G5A C6U U7A G8U C9A C18G C19A	0.0894
G5A C6U U7A G8U C9A C18G C19G	0.0648
G5A C6U U7A G8U C9A G13A A14G	0.0895

Variant	exon inclusion enrichment index
G5A C6U U7A G8U C9A G13A A14U	0.189
G5A C6U U7A G8U C9A G13A A14C	0.394
G5A C6U U7A G8U C9A G33C G34C	0.043
G5A C6U U7A G8U C9A G33C G34A	0.0386
G5A C6U U7A G8U C9A G33C G34U	0.0325
G5A C6U U7A G8U C9A G15C C16U	0.0353
G5A C6U U7A G8U C9A G15C C16A	0.0446
G5A C6U U7A G8U C9A G15C C16G	0.0723
G5A C6U U7A G8U C9A A35C C36G	0.0383
G5A C6U U7A G8U C9A A35C C36A	0.0286
G5A C6U U7A G8U C9A A35C C36U	0.00346
G5A C6U U7A G8U C9A G15A C16G	0.0191
G5A C6U U7A G8U C9A G15A C16A	0.0139
G5A C6U U7A G8U C9A G15A C16U	0.0138
G5A C6U U7A G8U C9A G13A	0.144
G5A C6U U7A G8U C9A G13C	0.0162
G5A C6U U7A G8U C9A G13U	0.00122
G5A C6U U7A G8U C9A C24U A25G	0.165
G5A C6U U7A G8U C9A C24U A25C	0.546
G5A C6U U7A G8U C9A C24U A25U	0.0538
G5A C6U U7A G8U C9A A47U	0.0348
G5A C6U U7A G8U C9A A47G	0.0115
G5A C6U U7A G8U C9A A47C	0.133
